We go through four molecules from paper PMC7005713, “Revisiting the pH-gated conformational switch on the activities of HisKA-family histidine kinases” (Nature Communications, 2020).

B1: HK853, complete cytoplasmic portion (DHp and CA domains), wild type (domain or fragment, Thermotoga maritima)
chain: VENVTESKELERLKRIDRMKTEFIANISHELRTPLTAIKAYAETIYNSLGELDLSTLKEFLEVIIDQSNHLENLLNELLDFSRLERKSLQINREKVDLCDLVESAVNAIKEFASSHNVNVLFESNVPCPVEAYIDPTRIRQVLLNLLNNGVKYSKKDAPDKYVKVILDEKDGGVLIIVEDNGIGIPDHAKDRIFEQFYRVDSSLTYEVPGTGLGLAITKEIVELHGGRIWVESEVGKGSRFFVWIPKDRAGEDNRQDN
notes: Sensor histidine kinase HK853 of Thermotoga maritima, complete cytoplasmic (catalytic) portion with DHp and CA domains; source: E. coli BL21-CodonPlus(DE3)-RIL, purified (70 °C heat step, HisTrap HP, TEV digestion, Superdex 200)
B2: HK853 H260A, complete cytoplasmic portion (domain or fragment, Thermotoga maritima)
chain: VENVTESKELERLKRIDRMKTEFIANISAELRTPLTAIKAYAETIYNSLGELDLSTLKEFLEVIIDQSNHLENLLNELLDFSRLERKSLQINREKVDLCDLVESAVNAIKEFASSHNVNVLFESNVPCPVEAYIDPTRIRQVLLNLLNNGVKYSKKDAPDKYVKVILDEKDGGVLIIVEDNGIGIPDHAKDRIFEQFYRVDSSLTYEVPGTGLGLAITKEIVELHGGRIWVESEVGKGSRFFVWIPKDRAGEDNRQDN
notes: ADP was added for crystallisation; Same limits as m1; source: E. coli BL21-CodonPlus(DE3)-RIL, purified (70 °C heat step, HisTrap HP, TEV digestion, Superdex 200)

Series [1] concerns the molecule itself. Description: crystal structure; HK853 (10 mg/ml) and RR468 (7.5 mg/ml) with 4 mM ADP, 30 mM NaF, 5 mM BeSO4, 7 mM MgCl2; sitting drops at 21 °C; 1.8 M (NH4)2SO4, 0.1 M sodium citrate; four structures at pH 5.5, 6.5, 7 and 7.5.
Series [2] concerns the molecule itself. Description: crystal structure; HK853 H260A and RR468 D53A with 4 mM ADP; sitting drops at 21 °C; pH 7.5: 1.8 M (NH4)2SO4, 100 mM sodium citrate; pH 5.3: 1.2 M (NH4)2SO4, 100 mM Bis-Tris; two structures.
Series [3] concerns the target B1. Description: crystal structure; HK853 (10 mg/ml) and RR468 (7.5 mg/ml) with 4 mM ADP, 30 mM NaF, 5 mM BeSO4, 7 mM MgCl2; sitting drops at 21 °C; 1.8 M (NH4)2SO4, 0.1 M sodium citrate; four structures at pH 5.5, 6.5, 7 and 7.5. The note with it: both partners purified.
Series [4] has as its target B1. In words: crystal structure; HK853 wild type and RR468 D53A with 4 mM ADP; sitting drops at 21 °C; pH 7: 1.8 M (NH4)2SO4, 100 mM sodium citrate; pH 5.3: 1.2 M (NH4)2SO4, 100 mM Bis-Tris; two structures. The settings on record: both partners purified.
The target of series [5] is B2. Description: crystal structure; HK853 H260A and RR468 D53A with 4 mM ADP; sitting drops at 21 °C; pH 7.5: 1.8 M (NH4)2SO4, 100 mM sodium citrate; pH 5.3: 1.2 M (NH4)2SO4, 100 mM Bis-Tris; two structures. The note with it: both partners purified.

With B1, in series [1], the binding result was “binds”.
As to B2, the binding result in series [2] is recorded as “binds”.

B3: RR468 wild type, bound to the phosphomimetic BeF3- (natural protein, Thermotoga maritima)
chain: MSKKVLLVDDSAVLRKIVSFNLKKEGYEVIEAENGQIALEKLSEFTPDLIVLDIMMPVMDGFTVLKKLQEKEEWKRIPVIVLTAKGGEEDESLALSLGARKVMRKPFSPSQFIEEVKHLLNE
modifications: phosphomimetic BeF3- bound to the phosphoacceptor D53
notes: Response regulator RR468 of Thermotoga maritima; BeF3- was formed in the crystallisation mixture from 30 mM NaF, 5 mM BeSO4 and 7 mM MgCl2; source: E. coli BL21-CodonPlus(DE3)-RIL, purified (70 °C heat step, HisTrap HP, TEV digestion, Superdex 75)
B3: the binding result in series [3] was “binds”.

B4: RR468 D53A (natural protein, Thermotoga maritima)
chain: MSKKVLLVDDSAVLRKIVSFNLKKEGYEVIEAENGQIALEKLSEFTPDLIVLAIMMPVMDGFTVLKKLQEKEEWKRIPVIVLTAKGGEEDESLALSLGARKVMRKPFSPSQFIEEVKHLLNE
notes: Response regulator RR468 of Thermotoga maritima cloned in pET22b, with the phosphoacceptor Asp53 changed to Ala; lacks a Histag; source: E. coli BL21-CodonPlus(DE3)-RIL, purified (70 °C heat step, Mono Q, Superdex 75)
As for B4, the binding result in series [4] and in series [5] was “binds” each time.
